No end group written: not given here. dPEG24 = 24 PEG moieties
Biological target: C1q as present in the human serum or plasma of the hemolytic assays (human) (UniProt P02745)
Assay: cell-based or functional assay

Sequence of UniProt P02745 (P02745 23-245 limits assumed, chain 1 of 3): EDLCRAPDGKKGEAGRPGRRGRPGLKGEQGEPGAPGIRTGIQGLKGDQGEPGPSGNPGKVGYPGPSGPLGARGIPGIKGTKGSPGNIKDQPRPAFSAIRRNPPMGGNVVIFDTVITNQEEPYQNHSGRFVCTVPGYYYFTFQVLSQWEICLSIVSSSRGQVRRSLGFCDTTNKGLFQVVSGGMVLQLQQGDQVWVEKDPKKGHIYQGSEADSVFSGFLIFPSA
Sequence of UniProt P02745 (P02746 28-253 limits assumed, chain 2 of 3, further chain): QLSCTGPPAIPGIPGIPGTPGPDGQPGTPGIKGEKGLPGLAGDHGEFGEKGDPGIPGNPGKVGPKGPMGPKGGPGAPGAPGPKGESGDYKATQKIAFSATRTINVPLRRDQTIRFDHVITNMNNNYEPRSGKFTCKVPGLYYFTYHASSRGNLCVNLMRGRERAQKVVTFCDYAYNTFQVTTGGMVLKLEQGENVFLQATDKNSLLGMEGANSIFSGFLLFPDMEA
Sequence of UniProt P02745 (P02747 29-245 limits assumed, chain 3 of 3, further chain): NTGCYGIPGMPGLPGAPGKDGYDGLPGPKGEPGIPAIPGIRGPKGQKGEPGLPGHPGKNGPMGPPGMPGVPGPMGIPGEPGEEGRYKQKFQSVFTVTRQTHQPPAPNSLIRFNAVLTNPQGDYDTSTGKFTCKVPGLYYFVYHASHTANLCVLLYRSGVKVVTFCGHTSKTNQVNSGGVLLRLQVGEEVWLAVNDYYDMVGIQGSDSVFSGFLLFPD

B1: PA-dPEG24 (peptide)
peptide: IALILEPICCQERAA-dPEG24
modifications: cysteine pairing not given here
Hemolysis in presence of PA-dPEG24 (Abs 412 nm), type-O donor #1 plasma with B+ erythrocytes (0.747 without peptide): 0.008 Abs 412 nm | inhibition of hemolysis, type-O plasma with type-B erythrocytes, dose response (FIG. 8): > 95%

From US20200254053A1
